Experiments:
[1] = molecular target: T1, human IL-33 (R&D Systems, # 3625-IL-010/CF) (human, UniProt O95760 112-270, biotinylated in the blocking ELISA of Example 3 (sites not given)); assay: SPR (Biacore T-200), 37 C; Fc fusion captured by anti-Fc antibody, IL-33 injected
T1 construct: Commercial protein; also called hIL-33; biot-hIL-33
T1 sequence (looked up): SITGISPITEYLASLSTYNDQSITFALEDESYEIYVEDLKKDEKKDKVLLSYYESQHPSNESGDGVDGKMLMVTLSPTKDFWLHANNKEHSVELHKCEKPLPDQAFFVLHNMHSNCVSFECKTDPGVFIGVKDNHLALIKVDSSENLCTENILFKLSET
Description: (§1) The Biacore sensor surface was first derivatized by amine coupling a polyclonal rabbit anti-mouse antibody (GE, # BR-1008-38) or with a monoclonal mouse anti-human Fc antibody (GE, # BR-1008-39) to capture IL-33 Trap and receptor proteins with a C-terminal mouse IgG2a Fc tag or a C-terminal human IgG1 Fc tag, respectively. Kinetic experiments were carried out in 0.01 M HEPES pH 7.4, 0.15 M NaCl, 3 mM EDTA, and 0.005% v/v Surfactant Tween-20 (HBST running buffer). Different concentrations of human IL-33, mouse IL-33 or MfIL-33-6His prepared in HBST running buffer (ranging from 60 nM to 27.4 pM, 3-fold dilutions, for Trap proteins and ranging from 60 nM to 0.25 nM, 3-fold dilutions, for ST2 receptor proteins) were injected over the captured IL-33 Trap and receptor protein surfaces at a flow rate of 50 μL/minute. Association of different IL-33 proteins to the different capture surfaces was monitored for 7 minutes for Trap proteins or 4 minutes for ST2 receptor proteins and their dissociation in HBST running buffer was monitored for 14 minutes for Trap proteins or 8 minutes for ST2 receptor proteins. Kinetic association (ka) and dissociation (kd) rate constants were determined by fitting the real-time binding sensorgrams to a 1:1 binding model using Scrubber 2.0c curve-fitting software. Binding dissociation equilibrium constants (KD) and dissociative half-lives (t½) were calculated from the kinetic rate constants as: […]

[2] = molecular target: T2, monkey IL-33 expressed with C-terminal hexahistidine tag (MfIL-33-6His) (cynomolgus monkey (M. fascicularis)); assay: SPR (Biacore T-200), 25 C; Fc fusion captured by anti-Fc antibody, MfIL-33-6His injected
T2 construct: also called M. fascicularis IL-33-6His; cynomolgus monkey IL-33
T2 chain: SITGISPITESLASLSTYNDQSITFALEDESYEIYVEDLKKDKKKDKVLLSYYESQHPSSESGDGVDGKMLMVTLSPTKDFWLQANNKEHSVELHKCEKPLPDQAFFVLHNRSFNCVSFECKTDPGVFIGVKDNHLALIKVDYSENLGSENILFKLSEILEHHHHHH
Description: as §1

[3] = molecular target: T1, human IL-33 (R&D Systems, # …); assay: cell-based or functional assay
[4] = molecular target: T3, mouse IL-33 (R&D Systems, # 3626-ML-010/CF) (mouse, UniProt Q8BVZ5 109-266); assay: SPR (Biacore T-200), 37 C; Fc fusion captured by anti-Fc antibody, mouse IL-33 injected
T3 construct: Commercial protein; also called mIL-33; mIL33
T3 sequence (looked up): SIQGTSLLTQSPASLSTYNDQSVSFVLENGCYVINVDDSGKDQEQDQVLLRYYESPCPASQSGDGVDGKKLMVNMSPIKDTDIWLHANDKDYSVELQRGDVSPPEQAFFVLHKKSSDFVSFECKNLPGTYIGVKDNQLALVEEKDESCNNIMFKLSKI
Description: as §1

[5] = molecular target: T2, monkey IL-33 expressed with C-terminal …; assay: cell-based or functional assay
[6] = molecular target: T1, human IL-33 (R&D Systems, # …); assay: cell-based or functional assay; remark: listed apart in the source
[7] = molecular target: T1, human IL-33 (R&D Systems, # …); assay: competition ELISA; antagonist pre-mixed with 20 pM biotin-hIL-33, binding to plate-coated human ST2-Fc
Description: The ability of exemplary IL-33 antagonists of the invention to block human IL-33 (hIL-33) binding to the human ST2 receptor was measured using a competition sandwich ELISA. A portion of human ST2 protein ecto domain that was expressed with a C-terminal mouse Fc tag (SEQ ID NO:2) was coated at a concentration of 1 μg/mL in PBS buffer on a 96-well microtiter plate overnight at 4° C. […] Biotinylated hIL-33 protein (R&D systems, #3625-IL/CF) (biot-hIL-33) was added to achieve a constant final concentration of 20 pM to serial dilutions of IL-33 antagonists ranging from 0 to 100 nM. The mixture was incubated for 1 hour at room temperature (RT) before transfer to the hST2-hFc coated microtiter plates. After incubation for 1 hour at RT, the wells were then washed, and plate-bound biot-hIL-33 was detected with HRP-conjugated streptavidin (Thermo Scientific, # N200). All samples were developed with a TMB solution (BD biosciences, # 51-2607KC) to produce a colorimetric reaction and then quenched by acidification with 1M sulfuric acid before measuring absorbance at 450 nm on a Victor X5 plate reader (PerkinElmer). Data analysis was performed using a sigmoidal dose-response model within Prism™ software. […] Maximum blocking values represent the ability of the antagonists to block IL-33 binding relative to baseline. The absorbance measured at the constant amount of hIL-33 on the dose curve was defined as 0% blocking and the absorbance with no added IL-33 was defined as 100% blocking. The absorbance values of the wells containing the highest concentration tested for each antagonist were used to determine the maximum blocking percent.

B1: hST2-hIL1RAcP-mFc (Fc fusion)
chain: KFSKQSWGLENEALIVRCPRQGKPSYTVDWYYSQTNKSIPTQERNRVFASGQLLKFLPAAVADSGIYTCIVRSPTFNRTGYANVTIYKKQSDCNVPDYLMYSTVSGSEKNSKIYCPTIDLYNWTAPLEWFKNCQALQGSRYRAHKSFLVIDNVMTEDAGDYTCKFIHNENGANYSVTATRSFTVKDEQGFSLFPVIGAPAQNEIKEVEIGKNANLTCSACFGKGTQFLAAVLWQLNGTKITDFGEPRIQQEEGQNQSFSNGLACLDMVLRIADVKEEDLLLQYDCLALNLHGLRRHTVRLSRKNPIDHHSSERCDDWGLDTMRQIQVFEDEPARIKCPLFEHFLKFNYSTAHSAGLTLIWYWTRQDRDLEEPINFRLPENRISKEKDVLWFRPTLLNDTGNYTCMLRNTTYCSKVAFPLEVVQKDSCFNSPMKLPVHKLYIEYGIQRITCPNVDGYFPSSVKPTITWYMGCYKIQNFNNVIPEGMNLSFLIALISNNGNYTCVVTYPENGRTFHLTRTLTVKVVGSPKNAVPPVIHSPNDHVVYEKEPGEELLIPCTVYFSFLMDSRNEVWWTIDGKKPDDITIDVTINESISHSRTEDETRTQILSIKKVTSEDLKRSYVCHARSAKGEVAKAAKVKQKVPAPRYTVESGEPRGPTIKPCPPCKCPAPNLLGGPSVFIFPPKIKDVLMISLSPIVTCVVVDVSEDDPDVQISWFVNNVEVHTAQTQTHREDYNSTLRVVSALPIQHQDWMSGKEFKCKVNNKDLPAPIERTISKPKGSVRAPQVYVLPPPEEEMTKKQVTLTCMVTDFMPEDIYVEWTNNGKTELNYKNTEPVLDSDGSYFMYSKLRVEKKNWVERNSYSCSVVHEGLHNHHTTKSFSRTPGK
notes: also called third IL-33 antagonist; human IL-33 Trap
[1]
  60 nM Human IL-33 Bound (RU): 28 RU
  Kd: 0.00111 nM
  koff: 2.02e-05 s⁻¹
  kon: 1.82e+07 M⁻¹ s⁻¹
  t1/2: 9.55 h
[2]
  60 nM Monkey IL-33 Bound (RU): 28 RU
  Kd: 0.00313 nM
  koff: 4.09e-05 s⁻¹
  kon: 1.31e+07 M⁻¹ s⁻¹
  t1/2: 4.7 h
[3]
  IC50 (M), blocking of IL-33 induced activation of human basophils (CD203c), donor 655675: 1.9e-11 M
  IC50 (M), blocking of IL-33 induced activation of human basophils (CD203c), donor 655676: 1.51e-11 M
  IC50 (M), blocking of IL-33 induced activation of human basophils (CD203c), donor 655685: 2.3e-11 M
  IC50 (M), blocking of IL-33 induced activation of human basophils (CD203c), donor 655686: 2.09e-11 M
  IC50 (M), blocking of IL-33 induced activation of human basophils (CD203c), donor 698846: 3.6e-11 M
  IC50 (M), blocking of IL-33 induced activation of human basophils (CD203c), donor 698847: 1.11e-11 M
[4]
  60 nM Mouse IL-33 Bound (RU): 21 RU
  Kd: 0.0933 nM
  koff: 0.000317 s⁻¹
  kon: 3.39e+06 M⁻¹ s⁻¹
  t1/2: 0.6 h
[5]
  IC50 (M), inhibition of 3 pM monkey IL-33 activation of HEK293/hST2/NFkB-luciferase cells: 4.7e-11 M
  IC50 (M), inhibition of 5 pM monkey IL-33 activation of HEK293/hST2/NFkB-luciferase cells: 1.3e-12 M
[6]
  IC50 (M), inhibition of 5 pM human IL-33 activation of HEK293/hST2/NFkB-luciferase cells: 1.3e-12 M
  IC50 (M), inhibition of 20 pM human IL-33 activation of HEK293/hST2/NFkB-luciferase cells: 1.3e-11 M
[7]
  IC50: 0.00634 nM

— patent US20170204158A1 (Regeneron, published 2017)
